Test results taken from patent US20240400635A1 (Novo Nordisk, published 2024).

Tests used:
Assay in all cases: cell-based or functional assay
[1] = biological target: FGF receptor/BKL complex (human, UniProt Q86Z14 1-1044)
[2] = biological target: T1, human GLP-1 receptor (human, UniProt P43220 24-463)
[3] = biological target: T1, human GLP-1 receptor; remark: listed apart in the source

Chain of FGF receptor/BKL complex (Q86Z14 whole entry, one chain of several): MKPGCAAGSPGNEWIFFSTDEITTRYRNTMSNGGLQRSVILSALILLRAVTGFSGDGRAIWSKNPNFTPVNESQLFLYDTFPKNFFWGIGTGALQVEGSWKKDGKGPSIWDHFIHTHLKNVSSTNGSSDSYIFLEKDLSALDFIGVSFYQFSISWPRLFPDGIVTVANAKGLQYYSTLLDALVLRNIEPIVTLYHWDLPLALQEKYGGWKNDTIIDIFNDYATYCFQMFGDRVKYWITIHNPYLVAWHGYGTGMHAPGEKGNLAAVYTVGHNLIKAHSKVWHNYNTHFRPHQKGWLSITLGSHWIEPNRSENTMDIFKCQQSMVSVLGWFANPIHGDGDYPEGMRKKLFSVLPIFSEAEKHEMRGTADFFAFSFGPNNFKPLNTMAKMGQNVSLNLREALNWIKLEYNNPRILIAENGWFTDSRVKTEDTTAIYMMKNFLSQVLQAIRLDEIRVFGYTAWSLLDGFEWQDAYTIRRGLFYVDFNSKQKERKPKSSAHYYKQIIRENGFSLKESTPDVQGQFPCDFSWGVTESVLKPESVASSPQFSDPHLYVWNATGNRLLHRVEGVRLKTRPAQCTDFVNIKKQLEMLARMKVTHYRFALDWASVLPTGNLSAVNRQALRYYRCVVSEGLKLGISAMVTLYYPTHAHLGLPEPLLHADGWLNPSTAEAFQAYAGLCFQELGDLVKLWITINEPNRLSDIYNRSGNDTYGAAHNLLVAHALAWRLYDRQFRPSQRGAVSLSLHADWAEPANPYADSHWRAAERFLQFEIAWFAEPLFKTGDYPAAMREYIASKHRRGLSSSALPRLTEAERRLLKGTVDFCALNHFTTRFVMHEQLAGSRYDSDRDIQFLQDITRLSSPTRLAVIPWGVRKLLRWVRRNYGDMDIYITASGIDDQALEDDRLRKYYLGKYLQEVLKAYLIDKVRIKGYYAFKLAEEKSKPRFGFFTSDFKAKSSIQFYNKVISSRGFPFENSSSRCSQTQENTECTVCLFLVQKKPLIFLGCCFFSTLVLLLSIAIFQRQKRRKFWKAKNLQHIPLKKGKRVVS

Binder	FGF1 receptor potency [EC50] nM 0.1% HSA [1] [nM]	FGF21 receptor potency [EC50] nM 0% HSA [1] [nM]	GLP-1 receptor potency [EC50] pM 0% HSA [2] [pM]	GLP-1 receptor potency [EC50] pM 1% HSA [2] [pM]	GLP-1R potency loss against Chem. 24, absence of HSA [3] [fold]	GLP-1R potency loss against Chem. 24, presence of HSA [3] [fold]
[8G, 22E, 36G]GLP-1(7-37)-(GAQP)x2, … (ligand, Cys of the spacer (residue 40 of the chain) S-alkylated with substituent Chem. 7) HGEGTFTSDVSSYLEEQAAKEFIAWLVKGGGGAQPGAQPCGAQPGAQPAHPIPDSSPLLQFGGQVRQRYLYTDDAQQTEAHLEIREDGTVGGAADQSPESLLQLKALKPGVIQILGVKTSRFLCQRPDGALYGSLHFDPEACSFRELLLEDGYNVYQSEAHGLPLHLPGQKSPHRDPAPRGPARFLPLPGLPPALPEPPGILAPQPPDVGSSDPLSLVGGSQGRSPSYAS	1.36	0.19	92.3	394		
S{Beta-27}-[2-[2-[[2-[2-[2-[[2-[2-[2-[[(4S)-4-carboxy-4-(17-carboxyheptadecanoyl-amino)butanoyl]amino]ethoxy]ethoxy]acetyl]amino]ethoxy]ethoxy]acetyl]amino]-eth … (ligand, Cys27 of the GLP-1 part (GLP-1(7-37) numbering; residue 21 of the chain) S-alkylated with substituent Chem. 7) HGEGTFTSDVSSYLEEQAAKCFIAWLVKGGGGAQPGAQPGAQPGAQPGAQPGAQPGAQPGAQPGAQPGAQPGAQPGAQPGAQPGAQPGAQPGAQPAHPIPDSSPLLQFGGQVRQRYLYTDDAQQTEAHLEIREDGTVGGAADQSPESLLQLKALKPGVIQILGVKTSRFLCQRPDGALYGSLHFDPEACSFRELLLEDGYNVYQSEAHGLPLHLPGQKSPHRDPAPRGPARFLPLPGLPPALPEPPGILAPQPPDVGSSDPLSLVGGSQGRSPSYES	1.14	0.47	9.5	103		
{S27-[(28S)-(28,46-Dicarboxy-2,7,16,25,30-pentaoxo-9,12,18,21-tetraoxa-3,6,15,24,29-pentaazahexatetracontan-1-yl)]-[Gly8,36,Glu22,Cys27]-GLP-1(human)-(7-37)-pep … (ligand, Cys27 of the GLP-1 part (GLP-1(7-37) numbering; residue 21 of the chain) S-alkylated with (28S)-(28,46-Dicarboxy-2,7,16,25,30-pentaoxo-9,12,18,21-tetraoxa-3,6,15,24,29-pentaazahexatetracontan-1-yl) (substituent Chem. 7)) HGEGTFTSDVSSYLEEQAAKCFIAWLVKGGGGAQPGAQPGAQPGAQPGAQPGAQPGAQPGAQPGAQPGAQPGAQPGAQPGAQPGAQPGAQPGAQPGAQPGAQPGAQPGAQPGAQPGAQPGAQPGAQPGAQPGAQPGAQPGAQPGAQPGAQPGAQPGAQPAHPIPDSSPLLQFGGQVRQRYLYTDDAQQTEAHLEIREDGTVGGAADQSPESLLQLKALKPGVIQILGVKTSRFLCQRPDGALYGSLHFDPEACSFRELLLEDGYNVYQSEAHGLPLHLPGQKSPHRDPAPRGPARFLPLPGLPPALPEPPGILAPQPPDVGSSDPLSLVGGSQGRSPSYES	1.42	0.67	9.8	203		
[8G, 22E, 26R, 36G]GLP-1(7-37)-(GAQP)x2, … (ligand, Cys of the spacer (residue 40 of the chain) S-alkylated with substituent Chem. 7) HGEGTFTSDVSSYLEEQAAREFIAWLVKGGGGAQPGAQPCGAQPAHPIPDSSPLLQFGGQVRQRYLYTDDAQQTEAHLEIREDGTVGGAADQSPESLLQLKALKPGVIQILGVKTSRFLCQRPDGALYGSLHFDPEACSFRELLLEDGYNVYQSEAHGLPLHLPGQKSPHRDPAPRGPARFLPLPGLPPALPEPPGILAPQPPDVGSSDPLSLVGGSQGRSPSYAS	0.57	0.32	28.2	222		
S{Beta-27}-[2-[2-[[2-[2-[2-[[2-[2-[2-[[(4S)-4-carboxy-4-(17-carboxyheptadecanoyl-amino)butanoyl]amino]ethoxy]ethoxy]acetyl]amino]ethoxy]ethoxy]acetyl]amino]-eth … (ligand, Cys27 of the GLP-1 part (GLP-1(7-37) numbering; residue 21 of the chain) S-alkylated with substituent Chem. 7) HGEGTFTSDVSSYLEEQAAKCFIAWLVKGGGGAQPGAQPGAQPGAQPGAQPGAQPGAQPGAQPAHPIPDSSPLLQFGGQVRQRYLYTDDAQQTEAHLEIREDGTVGGAADQSPESLLQLKALKPGVIQILGVKTSRFLCQRPDGALYGSLHFDPEACSFRELLLEDGYNVYQSEAHGLPLHLPGQKSPHRDPAPRGPARFLPLPGLPPALPEPPGILAPQPPDVGSSDPLSLVGGSQGRSPSYAS	0.45	0.24	15.7	106		
S{Beta-27}-[2-[2-[[2-[2-[2-[[2-[2-[2-[[(4S)-4-carboxy-4-(17-carboxyheptadecanoyl-amino)butanoyl]amino]ethoxy]ethoxy]acetyl]amino]ethoxy]ethoxy]acetyl]amino]-eth … (ligand, Cys27 of the GLP-1 part (GLP-1(7-37) numbering; residue 21 of the chain) S-alkylated with substituent Chem. 7) HGEGTFTSDVSSYLEEQAAKCFIAWLVKGGGGAQPGAQPGAQPGAQPGAQPGAQPGAQPGAQPAHPIPDSSPLLQFGGQVRQRYLYTDDAQQTEAHLEIREDGTVGGAADQSPESLLQLKALKPGVIQILGVKTSRFLCQRPDGALYGSLHFDPEACSFRELLLEDGYNVYQSEAHGLPLHLPGQKSPHRDPAPRGPARFLPLPGLPPALPEPPGILAPQPPDVGSSDPLSLVGGSQGRSPSYES	0.87	0.41	9.8	66.6		
[8G, 22E, 26R, 36G]GLP-1(7-37)-(GAQP)x2, … (ligand, Cys of the spacer (residue 40 of the chain) and Cys180 of the FGF21 part (FGF21(1-181) numbering; residue 229 of the chain) each S-alkylated with substituent Chem. 7) HGEGTFTSDVSSYLEEQAAREFIAWLVKGGGGAQPGAQPCGAQPGAQPAHPIPDSSPLLQFGGQVRQRYLYTDDAQQTEAHLEIREDGTVGGAADQSPESLLQLKALKPGVIQILGVKTSRFLCQRPDGALYGSLHFDPEACSFRELLLEDGYNVYQSEAHGLPLHLPGQKSPHRDPAPRGPARFLPLPGLPPALPEPPGILAPQPPDVGSSDPLSLVGPSQGRSPSYCSHGEGTFTSDVSSYLEEQAAREFIAWLVKGGGGAQPGAQPCGAQPGAQPAHPIPDSSPLLQFGGQVRQRYLYTDDAQQTEAHLEIREDGTVGGAADQSPESLLQLKALKPGVIQILGVKTSRFLCQRPDGALYGSLHFDPEACSFRELLLEDGYNVYQSEAHGLPLHLPGQKSPHRDPAPRGPARFLPLPGLPPALPEPPGILAPQPPDVGSSDPLSLVGPSQGRSPSYCS	18	0.22	29.5	450		
S{Beta-36}-[2-[2-[[2-[2-[2-[[2-[2-[2-[[(4S)-4-carboxy-4-(17-carboxyheptadecanoyl-amino)butanoyl]amino]ethoxy]ethoxy]acetyl]amino]ethoxy]ethoxy]acetyl]amino]-eth … (ligand, Cys36 of the GLP-1 part (GLP-1(7-37) numbering; residue 30 of the chain) S-alkylated with substituent Chem. 7) HGEGTFTSDVSSYLEEQAAREFIAWLVKGCGGAQPGAQPGAQPGAQPAHPIPDSSPLLQFGGQVRQRYLYTDDAQQTEAHLEIREDGTVGGAADQSPESLLQLKALKPGVIQILGVKTSRFLCQRPDGALYGSLHFDPEACSFRELLLEDGYNVYQSEAHGLPLHLPGQKSPHRDPAPRGPARFLPLPGLPPALPEPPGILAPQPPDVGSSDPLSLVGGSQGRSPSYES	0.73	0.41	54.6	394		
S{Beta-27}-[2-[2-[[2-[2-[2-[[2-[2-[2-[[(4S)-4-carboxy-4-(17-carboxyheptadecanoyl-amino)butanoyl]amino]ethoxy]ethoxy]acetyl]amino]ethoxy]ethoxy]acetyl]amino]-eth … (ligand, Cys27 of the GLP-1 part (GLP-1(7-37) numbering; residue 21 of the chain) S-alkylated with substituent Chem. 7) HGEGTFTSDVSSYLEEQAAKCFIAWLVKGGGGAQPGAQPGAQPGAQPAHPIPDSSPLLQFGGQVRQRYLYTDDAQQTEAHLEIREDGTVGGAADQSPESLLQLKALKPGVIQILGVKTSRFLCQRPDGALYGSLHFDPEACSFRELLLEDGYNVYQSEAHGLPLHLPGQKSPHRDPAPRGPARFLPLPGLPPALPEPPGILAPQPPDVGSSDPLSLVGGSQGRSPSYAS	0.38	0.13	16.9	75.4		
S{Beta-27}-[2-[2-[[2-[2-[2-[[2-[2-[2-[[(4S)-4-carboxy-4-(17-carboxyheptadecanoyl-amino)butanoyl]amino]ethoxy]ethoxy]acetyl]amino]ethoxy]ethoxy]acetyl]amino]-eth … (ligand, Cys27 of the GLP-1 part (GLP-1(7-37) numbering; residue 21 of the chain) S-alkylated with substituent Chem. 7) HGEGTFTSDVSSYLEEQAAKCFIAWLVKGGGGAQPGAQPGAQPGAQPAHPIPDSSPLLQFGGQVRQRYLYTDDAQQTEAHLEIREDGTVGGAADQSPESLLQLKALKPGVIQILGVKTSRFLCQRPDGALYGSLHFDPEACSFRELLLEDGYNVYQSEAHGLPLHLPGQKSPHRDPAPRGPARFLPLPGLPPALPEPPGILAPQPPDVGSSDPLSLVGGSQGRSPSYES	0.64	0.45	13.8	78.7		
S{Beta-26}-[2-[2-[[2-[2-[2-[[2-[2-[2-[[(4S)-4-carboxy-4-(17-carboxyheptadecanoyl-amino)butanoyl]amino]ethoxy]ethoxy]acetyl]amino]ethoxy]ethoxy]acetyl]amino]-eth … (ligand, Cys26 of the GLP-1 part (GLP-1(7-37) numbering; residue 20 of the chain) and Cys180 of the FGF21 part (FGF21(1-181) numbering; residue 228 of the chain) each S-alkylated with substituent Chem. 7) HGEGTFTSDVSSYLEEQAACEFIAWLVKGGGGAQPGAQPGAQPGAQPAHPIPDSSPLLQFGGQVRQRYLYTDDAQQTEAHLEIREDGTVGGAADQSPESLLQLKALKPGVIQILGVKTSRFLCQRPDGALYGSLHFDPEACSFRELLLEDGYNVYQSEAHGLPLHLPGQKSPHRDPAPRGPARFLPLPGLPPALPEPPGILAPQPPDVGSSDPLSLVGPSQGRSPSYCS	8.97	0.24	224	4410	40	26
S{Beta-27}-[2-[2-[[2-[2-[2-[[2-[2-[2-[[(4S)-4-carboxy-4-(17-carboxyheptadecanoyl-amino)butanoyl]amino]ethoxy]ethoxy]acetyl]amino]ethoxy]ethoxy]acetyl]amino]-eth … (ligand, Cys27 of the GLP-1 part (GLP-1(7-37) numbering; residue 21 of the chain) and Cys180 of the FGF21 part (FGF21(1-181) numbering; residue 228 of the chain) each S-alkylated with substituent Chem. 7) HGEGTFTSDVSSYLEEQAAKCFIAWLVKGGGGAQPGAQPGAQPGAQPAHPIPDSSPLLQFGGQVRQRYLYTDDAQQTEAHLEIREDGTVGGAADQSPESLLQLKALKPGVIQILGVKTSRFLCQRPDGALYGSLHFDPEACSFRELLLEDGYNVYQSEAHGLPLHLPGQKSPHRDPAPRGPARFLPLPGLPPALPEPPGILAPQPPDVGSSDPLSLVGPSQGRSPSYCS	7.57	0.2	18	391		
S{Beta-27}-[2-[2-[[2-[2-[2-[[2-[2-[2-[[(4S)-4-carboxy-4-(17-carboxyheptadecanoyl-amino)butanoyl]amino]ethoxy]ethoxy]acetyl]amino]ethoxy]ethoxy]acetyl]amino]-eth … (ligand, Cys27 of the GLP-1 part (GLP-1(7-37) numbering; residue 21 of the chain) and Cys180 of the FGF21 part (FGF21(1-181) numbering; residue 228 of the chain) each S-alkylated with substituent Chem. 7) HGEGTFTSDVSSYLEEQAARCFIAWLVKGGGGAQPGAQPGAQPGAQPAHPIPDSSPLLQFGGQVRQRYLYTDDAQQTEAHLEIREDGTVGGAADQSPESLLQLKALKPGVIQILGVKTSRFLCQRPDGALYGSLHFDPEACSFRELLLEDGYNVYQSEAHGLPLHLPGQKSPHRDPAPRGPARFLPLPGLPPALPEPPGILAPQPPDVGSSDPLSLVGPSQGRSPSYCS	8	1.2	11.4	389		
S{Beta-27}-[2-[2-[[2-[2-[2-[[2-[2-[2-[[(4S)-4-carboxy-4-(17-carboxyheptadecanoyl-amino)butanoyl]amino]ethoxy]ethoxy]acetyl]amino]ethoxy]ethoxy]acetyl]amino]-eth … (ligand, Cys27 of the GLP-1 part (GLP-1(7-37) numbering; residue 21 of the chain) S-alkylated with substituent Chem. 7) HGEGTFTSDVSSYLEEQAARCFIAWLVKGGGGAQPGAQPGAQPGAQPAHPIPDSSPLLQFGGQVRQRYLYTDDAQQTEAHLEIREDGTVGGAADQSPESLLQLKALKPGVIQILGVKTSRFLCQRPDGALYGSLHFDPEACSFRELLLEDGYNVYQSEAHGLPLHLPGQKSPHRDPAPRGPARFLPLPGLPPALPEPPGILAPQPPDVGSSDPLSLVGGSQGRSPSYES	0.43	0.17	17.2	104		
